# Measurements from US20070178531A1 (BIOCHECK, published 2007).
# Where a chain is given by its changes, count along the chain named.
# T1: Human Id2: Histidine (human, UniProt Q02363 1-134, limits assumed)
# T1 construct: Fusion protein made in E. coli from vector pGW07; also called h-Id2: His; not shown: His tag
# T1 sequence (looked up): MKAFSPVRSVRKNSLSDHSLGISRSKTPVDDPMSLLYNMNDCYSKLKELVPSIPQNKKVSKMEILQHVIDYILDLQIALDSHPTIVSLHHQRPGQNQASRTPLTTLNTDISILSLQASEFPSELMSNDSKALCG
# T2: Human Id3: Histidine (human, UniProt Q02535 1-119 at identity 1.00))
# T2 construct: Fusion protein made in E. coli from vector pGW07; also called h-Id3: His; Human Id3 (coated wells); not shown: His tag
# T2 chain: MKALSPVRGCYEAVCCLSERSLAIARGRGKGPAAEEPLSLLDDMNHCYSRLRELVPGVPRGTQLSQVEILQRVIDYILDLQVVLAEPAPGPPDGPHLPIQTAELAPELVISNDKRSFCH
# T3: Mouse Id2: Histidine (mouse, UniProt P41136 1-134, limits assumed)
# T3 construct: Fusion protein made in E. coli from vector pGW07; also called m-Id2: His; not shown: His tag
# T3 sequence (looked up): T1 sequence (looked up) with S60T, A131V
# T4: Mouse Id3: Histidine (mouse, UniProt P41133 1-119)
# T4 construct: Fusion protein made in E. coli from vector pGW07; also called m-Id3: His; Mouse Id3 (coated wells); not shown: His tag
# T4 sequence: T2 chain with G31S, A33S, A34T, A105T, N112K
# T5: Mouse Id1: Histidine (mouse, UniProt P20067-2 1-148, limits assumed)
# T5 construct: Fusion protein made in E. coli from vector pGW07; also called m-Id1-His; not shown: His tag
# T5 sequence (looked up): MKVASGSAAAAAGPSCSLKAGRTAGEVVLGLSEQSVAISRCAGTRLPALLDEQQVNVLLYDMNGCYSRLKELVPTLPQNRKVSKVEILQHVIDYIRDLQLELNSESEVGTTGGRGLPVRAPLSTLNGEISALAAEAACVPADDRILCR
# B1: rabbit monoclonal anti-mouse/human Id3, clone #BCH-4/#16-1 (antibody, V domains shown)
# VH: QSVEESGGRLVTPGTPLTLTCTASGFSLSSYYIHWVRQAPGKALEWIGYISDGGTTYYASWAKGRFTISKTSSTTVDLKMTSLTTEDTATYFCARQGFNIWGPGTLVTVSL
# VL: AVLTQTPSPVSAAVGGTVTISCQSSQSVYNNNWLSWFQQKSGQPPKLLIYETSKLESGVPSRFKGSGSGTQFTLTIIDVQCDDAATYYCLGGYWTTSDNNIFGGGTEVVVK
# notes: Rabbit IgG from a rabbit hybridoma; also called m/h Id3 MoAb 16-1
# B2: rabbit monoclonal anti-mouse/human Id3, clone #BCH-4/#17-3 (antibody, V domains shown)
# VH: B1 VH with S30N, Y31V, A43G, G54D, T56A, Y57R, S60T, D77N
# VL: B1 VL with T19S, Y29W, S41P, I77S, I101V
# notes: Rabbit IgG from a rabbit hybridoma; also called m/h Id3 MoAb 17-3; BCH-3/#17-3
# B3: rabbit monoclonal anti-mouse/human Id3, clone #BCH-4/#6-1 (antibody, V domains shown)
# VH: B1 VH with S30N, Y31V, A43G, G54D, T56A, Y57R, S60T, D77N
# VL: B1 VL with T19S, Y29W, S41P, I77S, I101V
# notes: Rabbit IgG from a rabbit hybridoma; also called m/h Id3 MoAb 6-1
# B4: rabbit monoclonal anti-mouse/human Id3, clone #BCH-4/#42-1 (antibody, V domains shown)
# VH: B1 VH
# VL: B1 VL with T95S
# notes: Rabbit IgG from a rabbit hybridoma; also called m/h Id3 MoAb 42-1
# B5: rabbit monoclonal anti-human Id3, clone #BCH-4/#3-3 (antibody, V domains shown)
# VH: QSVEESGGRLVTPGTPLTLTCTVSGIDLSSYAMSWVRQAPGKGLEWIGVIFPSNNVYYASWAKGRFTISKTSTTVDLKITSPTTEDTATYFCASMGAFDSWGPGTLVTVSS
# VL: QVLTQTPSPVSAAVGGTVTINCQASQSIYNDNDLAWFQQKPGQPPKLLIYDASTLTSGVPSRFKGSGSGTQFTLTISDLDCDDAATYYCAARYSGNIYGFGGGTEVVVK
# notes: Rabbit IgG from a rabbit hybridoma; also called h Id3 MoAb 3-3
# Molecular target: T6, glutathione S-transferase (GST) (UniProt P08515 1-218 = GST)
# T6 construct: also called carrier protein GST
# T6 sequence (P08515 whole entry): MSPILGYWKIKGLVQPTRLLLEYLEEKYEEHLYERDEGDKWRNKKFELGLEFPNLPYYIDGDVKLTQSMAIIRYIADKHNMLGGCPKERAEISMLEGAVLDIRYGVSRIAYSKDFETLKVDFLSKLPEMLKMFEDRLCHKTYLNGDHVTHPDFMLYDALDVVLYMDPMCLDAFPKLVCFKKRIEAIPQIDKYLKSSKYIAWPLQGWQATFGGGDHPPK
# Assay: ELISA, Ab 0.005 µg/ml
row,Binder,A450 [A450]
1,B1,0.048
2,B2,0.048
3,B3,0.046
4,B4,0.048
5,B5,0.045

# Molecular target: T1, Human Id2: Histidine
# Assay: ELISA, Ab 0.000 µg/ml (blank)
# Experimental: (§1) The rabbit monoclonal anti-human Id3 (clone #3-3) and the rabbit monoclonal anti-mouse/human Id3 (clones #6-1, 16-1, 17-3, and 42-1) produced in Example 6 were tested reactivity against the following antigens: mouse Id1:His, human Id1:His, mouse Id2:His, human Id2:His, mouse Id3:His, human Id3:His, mouse Id4:His, human Id4:His and GST.
# (§2) 1. Microtiter wells (prepared in accordance with Example 6) were coated (0.1 μg/well) with mouse Id1:His, human Id1:His, human Id2:His, human Id3:His, and 1.0 μg/well with GST. [0155] 2. Antibody Diluent: 0.25% (w/v) BSA in 0.015M KPO₄ Buffer, 0.85% (w/v) NaCl, 0.1% (w/v) NaN₃, pH=7.40 [0156] 3. Rabbit monoclonal anti-human Id3 (clone #3-3) prepared in Example 7 was diluted to […] with the antibody diluent. […] 4. Rabbit monoclonal anti-mouse/human Id3 (clones #6-1, 16-1, 17-3, 42-1) prepared in Example 7 was diluted to 0.005, 0.010, 0.025, 0.05, 0.10, 0.25, and 0.50 μg/ml with the antibody diluent. […] 5. Conjugate Diluent: 50% (v/v) which consists of an aqueous solution containing Fetal Bovine Serum in 0.05 M Tris, 1% (v/v) Proclin-300, pH 7.6. [0159] 6. Conjugate: Goat anti-rabbit IgG (H+L)-HRP conjugate. [0160] 7. TMB reagent. […] 8. Stop solution (1 N HCI). Method
# (§3) 1. Dispense 100 μL of antibody diluent, diluted rabbit monoclonal human Id3, and mouse/human Id3 hybridoma supernatants into appropriate wells. […] 2. Incubate at room temperature with mechanical shaking at 750 rpm for 90 minutes. [0165] 3. Remove the incubation mixture by flicking plate content into an appropriate waste container followed by rinsing the wells 5 times with distilled water. [0166] 4. Strike the wells sharply onto absorbent paper or paper towels to remove all residual water droplets. [0167] 5. Dispense 100 μL of 1:50,000 Goat Anti-Rabbit IgG-HRP Conjugate Reagent into each well. Gently mix for 5 seconds. [0168] 6. Incubate at room temperature with mechanical shaking at 750 rpm for 90 minutes. [0169] 7. Repeat procedures 3 and 4. [0170] 8. Dispense 100 μL of TMB Reagent into each well. Gently mix for 5 seconds. [0171] 9. Incubate at room temperature with mechanical shaking at 750 rpm for 20 minutes. […] 10.
row,Binder,A450 [A450]
1,B1,0.049
2,B2,0.043
3,B3,0.045
4,B4,0.044
5,B5,0.043

# Molecular target: T2, Human Id3: Histidine
# Assay: ELISA, Ab 0.000 µg/ml (blank)
# Experimental: as §1, §2, §3
row,Binder,A450 [A450]
1,B1,0.046
2,B2,0.045
3,B3,0.043
4,B4,0.044

# Molecular target: T3, Mouse Id2: Histidine
# Assay: ELISA, Ab 0.000 µg/ml (blank)
# Experimental: as §1, §2, §3
row,Binder,A450 [A450]
1,B1,0.046
2,B2,0.048
3,B3,0.044
4,B4,0.048
5,B5,0.048

# Molecular target: T6, glutathione S-transferase (GST)
# Assay: ELISA, Ab 0.000 µg/ml (blank)
# Experimental: as §1, §2, §3
row,Binder,A450 [A450]
1,B1,0.048
2,B2,0.046
3,B3,0.047
4,B4,0.048
5,B5,0.044

# Molecular target: T4, Mouse Id3: Histidine
# Assay: ELISA, Ab 0.000 µg/ml (blank)
# Experimental: as §1, §2, §3
row,Binder,A450 [A450]
1,B1,0.044
2,B2,0.047
3,B3,0.047
4,B4,0.047

# Molecular target: T5, Mouse Id1: Histidine
# Assay: ELISA, Ab 0.000 µg/ml (blank)
# Experimental: as §1, §2, §3
row,Binder,A450 [A450]
1,B1,0.044
2,B2,0.045
3,B3,0.045
4,B4,0.052
5,B5,0.047

# Molecular target: T2, Human Id3: Histidine
# Assay: ELISA, Ab 0.500 µg/ml
# Experimental: as §1, §2, §3
row,Binder,A450 [A450]
1,B1,3.37
2,B2,3.69
3,B3,3.56
4,B4,3.75

# Molecular target: T4, Mouse Id3: Histidine
# Assay: ELISA, Ab 0.500 µg/ml
# Experimental: as §1, §2, §3
row,Binder,A450 [A450]
1,B1,3.61
2,B2,3.74
3,B3,3.81
4,B4,3.63

# Molecular target: T5, Mouse Id1: Histidine
# Assay: ELISA, Ab 0.500 µg/ml
# Experimental: as §1, §2, §3
row,Binder,A450 [A450]
1,B1,0.047
2,B2,0.06
3,B3,0.051
4,B4,0.053
5,B5,0.05
